Experimental data taken from patent US20220235144A1 (QILU PUGET SOUND BIOTHERAPEUTICS, published 2022).

T1: cSIRPαV1D1 with histidine tag (cynomolgus monkey (Macaca fascicularis), UniProt Q5TFQ8 30-146 (human entry))
T1 construct: also called cynomolgus monkey SIRPαV1D1; not shown: histidine tag
T1 chain: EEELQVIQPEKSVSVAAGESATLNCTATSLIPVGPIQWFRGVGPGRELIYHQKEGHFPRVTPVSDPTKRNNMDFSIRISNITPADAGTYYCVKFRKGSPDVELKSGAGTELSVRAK

T2: cSIRPαV2D1 with histidine tag (cynomolgus monkey (Macaca fascicularis), UniProt Q5TFQ8 30-146 (human entry))
T2 construct: also called cynomolgus monkey SIRPαV2D1; not shown: histidine tag
T2 chain: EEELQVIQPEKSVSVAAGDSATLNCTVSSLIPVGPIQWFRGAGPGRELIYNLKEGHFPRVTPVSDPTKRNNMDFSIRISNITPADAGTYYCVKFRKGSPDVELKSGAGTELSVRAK


Legend:
[1] = biological target: T3, hSIRPαV1D1 with histidine tag (human, UniProt P78324 31-147); assay: SPR (Biacore 3000), IgG captured on anti-human IgG, His-tagged D1 analyte
T3 construct: analyte of the Biacore experiments; also called first immunoglobulin-like domain of human SIRPα variant V1; not shown: histidine tag
T3 sequence (P78324 31-147 limits assumed): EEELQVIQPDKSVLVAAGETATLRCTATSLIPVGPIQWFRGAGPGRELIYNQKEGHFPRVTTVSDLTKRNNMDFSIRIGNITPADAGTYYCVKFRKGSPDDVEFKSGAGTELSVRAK
Text: (§1) Goat anti-human IgG capture antibody (Jackson Laboratories; 109-005-098) was immobilized on the four flow cells in each sensor chip using standard amine coupling chemistry. About 8000 resonance units (RU) of this antibody was immobilized on each flow cell. Flow cells 2, 3, and 4 were used to analyze captured anti-SIRPα antibodies (about 250 to 300 RU were captured on each of flow cells 2, 3, and 4), while flow cell 1 was used as the reference flow cell. The analytes tested were hSIRPαV1D1, hSIRPαV2D1, cynomolgus monkey SIRPαV1D1 (cSIRPαV1D1), cSIRPαV2D1, hSIRPβ1D1, and hSIRPγD1, each of which also included a histidine tag. The sequences of cSIRPαV1D1 and cSIRPαV2D2 are provided in SEQ ID NOs: 143 and 142, respectively. To avoid confusion, the differences between the amino acid sequences of cSIRPαV1D1 and cSIRPαV2D1 are not the same as the differences between the amino acid sequences of hSIRPαV1D1 and hSIRPαV2D1. […] The amino acid sequence of hSIRPβ1D1 can be found in amino acids 30-148 of SEQ ID NO: 144, and the amino acid sequence of hSIRPγD1 can be found in amino acids 31-149 of SEQ ID NO: 141.
(§2) Generally, concentrations from about 0.1×KD to about 10×KD are appropriate for kinetic analysis. From one to six different concentrations were evaluated for each antibody:analyte interaction, depending on the comparisons to be made in an individual experiment. All analyte dilutions were prepared in HPS-EP buffer. Multiple blank (running buffer) injections were run and used to assess and subtract system artifacts. The association phase and dissociation phase for all analyte concentrations were monitored for 180 seconds and 300 seconds, respectively, at a flow rate of 50 μL/min. Between antibody samples, the surfaces of the flow cells were regenerated with 10 mM glycine, pH 1.5 using two injections, each lasting 12 seconds at a flow rate of 50 μL/min.
(§3) The data were analyzed using BIAevaluation software (Biacore, General Electric (GE)). The data was fit using the 1:1 Langmuir model.

[2] = biological target: T4, hSIRPαV2D1 with histidine tag (human); assay: as above
T4 construct: analyte of the Biacore experiments; also called first immunoglobulin-like domain of human SIRPα variant V2; not shown: histidine tag
T4 sequence (chain, as listed by the source limits assumed): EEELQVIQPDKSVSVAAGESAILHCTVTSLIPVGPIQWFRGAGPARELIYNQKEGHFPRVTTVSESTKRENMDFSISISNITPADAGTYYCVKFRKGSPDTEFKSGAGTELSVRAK
Text: as §1, §2, §3

[3] = biological target: T1, cSIRPαV1D1 with histidine tag; assay: as above
Text: as §1, §2, §3

[4] = biological target: T2, cSIRPαV2D1 with histidine tag; assay: as above
Text: as §1, §2, §3

[5] = biological target: T5, hSIRPβ1D1 with histidine tag (human, UniProt O00241 30-148); assay: as above
T5 construct: analyte of the Biacore experiments; also called hSIRPβD1; not shown: histidine tag
T5 sequence (O00241 30-148): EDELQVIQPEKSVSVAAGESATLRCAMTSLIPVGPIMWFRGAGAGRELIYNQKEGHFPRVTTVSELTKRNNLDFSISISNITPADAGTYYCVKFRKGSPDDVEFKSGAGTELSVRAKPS
Text: as §1, §2, §3

[6] = biological target: T6, hSIRPγD1 with histidine tag (human, UniProt Q9P1W8 31-149); assay: as above
T6 construct: also called first immunoglobulin-like domain of human SIRP Gamma; not shown: histidine tag
T6 sequence (Q9P1W8 31-149): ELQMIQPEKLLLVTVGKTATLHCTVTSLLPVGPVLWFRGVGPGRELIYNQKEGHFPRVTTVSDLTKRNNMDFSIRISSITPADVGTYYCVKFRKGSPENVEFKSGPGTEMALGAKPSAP
Text: as §1, §2, §3

[7] = biological target: T7, hSIRPαV2 expressed on the cell surface (human, UniProt P78324 31-504); assay: FACS competition on EXPI293 cells stably expressing hSIRPαV2: biotinylated hCD47:Fc (2.5 µg/ml) mixed with serial dilutions of the antibody, bound hCD47:Fc detected with streptavidin-PE (MFI); blocked ligand: hCD47:Fc
T7 construct: whole, on cells; also called human SIRPα variant V2
T7 sequence (P78324 other isoform, or with tags, fused parts or gaps limits assumed): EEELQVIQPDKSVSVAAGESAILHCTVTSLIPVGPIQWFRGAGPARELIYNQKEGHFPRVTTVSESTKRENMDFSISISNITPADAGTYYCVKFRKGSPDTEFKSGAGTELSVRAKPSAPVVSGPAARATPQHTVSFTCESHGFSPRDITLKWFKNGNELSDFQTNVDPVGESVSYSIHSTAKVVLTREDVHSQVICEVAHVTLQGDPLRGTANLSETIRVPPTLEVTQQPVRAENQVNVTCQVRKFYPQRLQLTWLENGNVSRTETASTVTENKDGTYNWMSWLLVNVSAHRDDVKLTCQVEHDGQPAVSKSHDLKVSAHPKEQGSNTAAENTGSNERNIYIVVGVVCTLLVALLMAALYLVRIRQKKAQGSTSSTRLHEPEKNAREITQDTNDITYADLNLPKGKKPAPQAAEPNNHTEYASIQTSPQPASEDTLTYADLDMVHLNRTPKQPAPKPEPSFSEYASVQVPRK
Method: The x axes show the antibody concentration in μg/ml. The y axes show mean fluorescence intensity (MFI) at about 572 nm (due to binding of biotinylated CD47:Fc, detected by a streptavidin-phycoerythrin conjugate).
Some of the anti-SIRPα antibodies described above were tested in vitro for their ability to inhibit binding of CD47 to hSIRPαV1 or hSIRPαV2 expressed on the surface of EXPI293™ cells stably transfected with DNA encoding these proteins. Briefly, stable transfectants expressing hSIRPαV1 or hSIRPαV2 were seeded into 96-well microtiter plates. […] After 30 minutes incubation, cells were washed, streptavidin-phycoerythrin (streptavidin-PE) was added, and cells were subjected to FACS to detect bound hCD47:Fc. Results were reported as a mean fluorescence intensity (MFI) using FlowJo software (FLOWJO, L.L.C., Ashland, Oreg., USA). FIGS. 4 and 5 show the MFI detected on the y axes of both panels and the antibody concentration on the x axes of both panels.

[8] = biological target: T7, hSIRPαV2 expressed on the cell surface; assay: flow cytometry on primary human monocytes (FSC/SSC gate) in PBMCs expressing only SIRPαV2, antibody detected with APC-(Fab)2 goat anti-human IgG Fc (MFI at about 670 nm)
Method: FIG. 6: Binding of anti-SIRPα antibodies to T cells and monocytes. Methods are described in Example 4. […] The x axes show the antibody concentration in μg/ml. The y axes show mean fluorescence intensity (MFI) at about 670 nm (due to binding of allophycocyanin (APC)-conjugated (Fab)₂ goat anti-human IgG Fc-specific secondary antibody).
Some of the anti-SIRPα antibodies were tested in vitro for binding to primary T cells and monocytes in peripheral blood mononuclear cells (PBMCs). Briefly, PBMCs that expressed only SIRPα V2 were seeded in 96-well microtiter plates. Serial dilutions of anti-SIRPα antibodies were incubated with the cells on ice for 30 minutes. […] The cells were then subjected to FACs. T cells were gated based on their anti-CD4 or anti-CD8 binding (detected by FITC fluorescence), since T cells commonly express either CD4 or CD8. Monocytes were gated based on their forward scatter/side scatter (FSC/SSC) profile, since a characteristic FSC/SSC profile can identify monocytes. See, e.g., Marimuthu et al., Characterization of human monocytes subsets by whole blood flow cytometry analysis, J. Vis. Exp. (140), e57941, doi:10.3791/57941 (2018). The binding of anti-SIRPα antibodies to each population was reported as a mean fluorescence intensity (MFI) of the APC channel (670 nm).

Binder	Kd [1]	Kd [2]	Kd [3]	Kd [4]	Kd [5]	Kd [6]	IC50 (read off the curve) [7]	EC50 (read off the curve) [8]
Ab2_G4 (antibody, human IgG4 S228P, kappa, V domains shown, human IgG4 format) VH: EVQLVESGGGLVKPGGSLRLSCAASGFTFSSYVMSWVRQTPGKGLEWVATISSGGTYTYYPDSVKGRFTLSRDNAKNSLYLQMNSLRAEDTAVYYCASSVDGSAFDYWGQGTTVTVSS VL: DIVITQSPASLAVSLGERATISCRASESVDSYGMSFMHWYQQKPGQPPKLLIYRASNLESGVPDRFSGSGSRTDFTLTINPLQAEDVATYYCHQSSENLPWTFGGGTKVEIKR	226 nM	3.06 nM	145 nM	~709 nM	53.6 nM	~944 nM		
Ab9_G4 (antibody, human IgG4 S228P, kappa, V domains shown, human IgG4 format) VH: EVQLVESGGGLVKPGGSLRLSCAASGFTFSSYVMSWVRQTPGKGLEWVATISSGGTYTYYPNSVKGRFTLSRDNAKNSLYLQMNSLRAEDTAVYYCVSSMTGSSFDYWGQGTTVTVSS VL: DIVITQSPASLAVSLGERATISCRASESVDSYGNSFMHWYQQKPGQPPKLLIYRASNLESGVPDRFSGSGSRTDFTLTINPLQAEDVATYYCHQSSEQLPWTFGGGTKVEIKR	102 nM	2.97 nM	183 nM	~432 nM	6.43 nM	~616 nM	~0.4 µg/mL	
Ab24_G4 (antibody, human IgG4 S228P, kappa, human IgG4 format) heavy: not shown light: DIVLTQSPASLAVSLGERATISCRASESVDLYGTSFMHWYQQKPGQPPKLLIYRASNLESGVPDRFSGSGSRTDFTLTINPLQAEDVATYYCHQSSDELPWTFGGGTKVEIKRTVAAPSVFIFPPSDEQLKSGTASVVCLLNNFYPREAKVQWKVDNALQSGNSQESVTEQDSKDSTYSLSSTLTLSKADYEKHKVYACEVTHQGLSSPVTKSFNRGEC	21.4 nM	0.956 nM	8.59 nM		0.217 nM	140 nM		~0.03 µg/mL
Ab4_G4 (antibody, human IgG4 S228P, kappa, human IgG4 format) heavy: not shown light: DIVITQSPASLAVSLGERATISCRASESVDSYGNSFMHWYQQKPGQPPKLLIYRASNLESGVPDRFSGSGSRTDFTLTINPLQAEDVATYYCHQSADLPWTFGGGTKVEIKRTVAAPSVFIFPPSDEQLKSGTASVVCLLNNFYPREAKVQWKVDNALQSGNSQESVTEQDSKDSTYSLSSTLTLSKADYEKHKVYACEVTHQGLSSPVTKSFNRGEC	307 nM	4.04 nM	165 nM	~714 nM	24.3 nM	~4560 nM		
Ab8_G4 (antibody, human IgG4 S228P, kappa, V domains shown, human IgG4 format) VH: EVQLVESGGGLVKPGGSLRLSCAASGFTFSSYVMSWVRQTPGKGLEWVATISSGGTYTYYPESVKGRFTLSRDNAKNSLYLQMNSLRAEDTAVYYCASQLTGSEFDYWGQGTTVTVSS VL: DIVMTQSPASLAVSLGERATISCRASESVDSYGNSFMHWYQQKPGQPPKLLIYRASNLESGVPDRFSGSGSRTDFTLTINPLQAEDVATYYCHQSADLPWTFGGGTKVEIKR	411 nM	6.02 nM	256 nM	~1050 nM	44.3 nM	~6200 nM		
Ab12_G4 (antibody, human IgG4 S228P, kappa, human IgG4 format) heavy: not shown light: DIVLTQSPASLAVSLGERATISCRASESVDSYGNSFMHWYQQKPGQPPKLLIYRASNLESGVPDRFSGSGSRTDFTLTINPLQAEDVATYYCHQSADLPWTFGGGTKVEIKRTVAAPSVFIFPPSDEQLKSGTASVVCLLNNFYPREAKVQWKVDNALQSGNSQESVTEQDSKDSTYSLSSTLTLSKADYEKHKVYACEVTHQGLSSPVTKSFNRGEC	348 nM	4.6 nM	197 nM	~727 nM	29 nM	~5020 nM		
Ab1_G2 (antibody, human IgG2, V domains shown) VH: EVQLVESGGGLVKPGGSLRLSCAASGFTFSSYVMSWVRQTPGKGLEWVATISSGGTYTYYPSSVKGRFTLSRDNAKNSLYLQMNSLRAEDTAVYYCASSLTGSSFDYWGQGTTVTVSS VL: DIVLTQSPASLAVSLGERATISCRASESVDLYGTSFMHWYQQKPGQPPKLLIYRASNLESGVPDRFSGSGSRTDFTLTINPLQAEDVATYYCHQSSDELPWTFGGGTKVEIKR	50.7 nM	2.51 nM	26.9 nM	287 nM	1.39 nM	168 nM		
Ab9_G2 (antibody, human IgG2, V domains shown, same antibody as Ab9_G4 except human IgG2 CH1, hinge, CH2 and CH3) VH: EVQLVESGGGLVKPGGSLRLSCAASGFTFSSYVMSWVRQTPGKGLEWVATISSGGTYTYYPNSVKGRFTLSRDNAKNSLYLQMNSLRAEDTAVYYCVSSMTGSSFDYWGQGTTVTVSS VL: DIVITQSPASLAVSLGERATISCRASESVDSYGNSFMHWYQQKPGQPPKLLIYRASNLESGVPDRFSGSGSRTDFTLTINPLQAEDVATYYCHQSSEQLPWTFGGGTKVEIKR	75 nM	2.11 nM	155 nM	~426 nM	6.63 nM	~457 nM		
Ab11_G2 (antibody, human IgG2, V domains shown, same antibody as Ab11_G4 except human IgG2 CH1, hinge, CH2 and CH3) VH: EVQLVESGGGLVKPGGSLRLSCAASGFTFSSYVMSWVRQTPGKGLEWVATISSGGTYTYYPDSVKGRFTLSRDNAKNSLYLQMNSLRAEDTAVYYCASQLTGSEFDYWGQGTTVTVSS VL: DIVITQSPASLAVSLGERATISCRASESVDSYGNSFMHWYQQKPGQPPKLLIYRASNLESGVPDRFSGSGSRTDFTLTINPLQAEDVATYYCHQSGDLPWTFGGGTKVEIKR	125 nM	1.92 nM	98 nM	~475 nM	8.58 nM	~3060 nM		
